Source: US20250136711A1 (SHANGHAI BIOTROY BIOTECHNIQUE, published 2025)
Where a chain is given by its changes, count along the chain named.

T1: SEMG2 recombinant protein (semenogelin-2) (human, UniProt Q02383 24-582, limits assumed)
T1 construct: also called SMEG2
T1 sequence (looked up): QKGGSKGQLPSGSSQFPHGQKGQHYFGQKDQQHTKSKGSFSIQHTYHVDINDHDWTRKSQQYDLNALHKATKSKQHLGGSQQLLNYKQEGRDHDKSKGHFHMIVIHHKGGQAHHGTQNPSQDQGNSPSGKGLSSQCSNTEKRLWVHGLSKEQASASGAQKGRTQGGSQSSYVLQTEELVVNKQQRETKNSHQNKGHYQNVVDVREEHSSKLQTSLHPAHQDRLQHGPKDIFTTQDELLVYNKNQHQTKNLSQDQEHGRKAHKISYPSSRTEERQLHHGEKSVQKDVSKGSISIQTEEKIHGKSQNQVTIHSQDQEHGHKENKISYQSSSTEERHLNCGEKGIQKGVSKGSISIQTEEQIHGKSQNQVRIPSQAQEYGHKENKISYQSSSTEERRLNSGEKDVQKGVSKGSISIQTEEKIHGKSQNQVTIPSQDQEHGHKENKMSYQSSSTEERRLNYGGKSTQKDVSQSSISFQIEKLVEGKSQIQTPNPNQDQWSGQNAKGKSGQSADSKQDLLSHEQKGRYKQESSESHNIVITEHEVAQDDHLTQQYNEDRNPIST

T2: SEMG1 recombinant protein (semenogelin-1) (human, UniProt P04279 24-462, limits assumed)
T2 construct: also called full-length SEMG1
T2 sequence (looked up): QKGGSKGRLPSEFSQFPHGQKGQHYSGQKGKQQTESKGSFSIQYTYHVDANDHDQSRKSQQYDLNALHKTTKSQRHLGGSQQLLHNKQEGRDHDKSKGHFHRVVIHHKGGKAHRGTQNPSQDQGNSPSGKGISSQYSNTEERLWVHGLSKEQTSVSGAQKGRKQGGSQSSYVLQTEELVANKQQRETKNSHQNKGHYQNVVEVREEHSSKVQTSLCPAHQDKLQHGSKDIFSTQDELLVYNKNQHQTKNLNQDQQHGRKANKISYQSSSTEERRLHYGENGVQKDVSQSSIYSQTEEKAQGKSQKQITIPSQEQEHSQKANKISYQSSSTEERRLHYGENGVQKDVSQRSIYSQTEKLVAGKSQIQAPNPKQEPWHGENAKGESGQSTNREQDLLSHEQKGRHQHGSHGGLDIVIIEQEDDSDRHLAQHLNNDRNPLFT

T3: S1-26 synthetic polypeptide of SEMG1 (human)
T3 construct: also called SEMG1-26
T3 peptide: KDIFSTQDELLVYNK

B1: 25-E10-F8-B5 (antibody, mouse IgG1, V domains shown)
VH: QVQLQQPGAELVKPGASVKMSCKASGYTFTSYNMHWVKQTPGQGLEWIGAIYPGNGDTSYNQKFKGKATLTADKSSSTAYMQLSSLTSEDSAVYYCASAMDYWGQGTSVTVSS
VL: SIVMTQTPLSLPVSLGDQASISCRSSQSLVHSNGNTYLQWYLQKPGQSPKLLIYKVSNRFSGVPDRFSGSGSGTDFTLKISRVEAEDLGVYFCSQSKHVPRTFGGGTKLEIK
notes: Mouse hybridoma monoclonal antibody; The V regions were re-cloned with murine IgG1 and murine kappa constant regions to verify activity
B2: 33-B5-C1-F5 (antibody, mouse IgG1, V domains shown)
VH: B1 VH with Q1E, Q6E, P7S, G15R, T30S, V37I, K38R, G42E, N55T
VL: B1 VL with S1D, I2V, M4L, V30L, Y41F, K44R, P45S, S61Y, K97I, H98D
notes: as for B1

Experiments:
SEMG2 (human) = SEMG2 (human) (UniProt Q02383); experiment: ELISA; negative control
[1] = biological target: T1, SEMG2 recombinant protein …; experiment: ELISA; SEMG2 coated, antibody in 3-fold dilution series, goat anti-mouse HRP
Experimental: (§1) In order to identify whether the screened monoclonal antibodies with neutralizing effect can bind to SEMG1 and SEMG2 proteins, we coated SEMG2 protein diluted in carbonate buffer (Solarbio, Beijing, China) to a final concentration of 1 μg/mL on a dedicated ELISA plate (costar, ME, USA), and the binding of 1 μg/mL mouse hybridoma antibody to SEMG2 was initially tested. According to the determination outcome, the binding and binding strength between SEMG1 or SEMG2 and the purified mouse monoclonal antibody were further analyzed by ELISA experiment, and an irrelevant mouse monoclonal antibody was taken as a negative control. Specifically, a special plate for ELISA (costar, ME, USA) was used. First, different concentrations of SEMG1 or SEMG2 recombinant proteins were dissolved in 100 μL of carbonate coating buffer (Solarbio, Beijing, China) to 2 μg/mL to coat the plate, and the negative control was coated with 100 μL of coating buffer without protein. The plates were coated overnight at 4° C. […] After washing with PBST, color developing solution (Sangon, Shanghai, China) was used for color development, 100 μL per well, the plate was placed in an incubator for 5-30 minutes, and adding 50 μL of stop solution (Sangon, Shanghai, China) to stop the reaction, and then the plate was placed in a microplate reader (Thermo Fisher, MA, USA) for chromogenic reading at 450 nm.

[2] = biological target: T2, SEMG1 recombinant protein …; experiment: ELISA; SEMG1 coated, antibody in 3-fold dilution series, goat anti-mouse HRP
Experimental: as §1

[3] = biological target: T3, S1-26 synthetic polypeptide of SEMG1; experiment: ELISA on coated peptide; antibody at 2.5 ug/mL; positive if OD ratio to blank >3
Experimental: ⅓ overlapping peptide sequences were designed, and a peptide library consisting of 45 peptides (GenScript, Nanjing) was synthesized. Peptide matrix was prepared by using a polypeptide-coated 96-well plate (Costar, Corning), and the selected monoclonal antibody was used as the primary antibody for ELISA binding test, and SEMG1 coating was set as a positive control, and BSA coating was set as a control. The ELISA procedure was performed routinely, as described in Example 2 above. For the coated polypeptide well with OD_{experimental group}/OD_{blank group}>3, it was determined as a positive reaction, which was the corresponding antibody-bound polypeptide sequence.

Molecule	EC50 (SEMG2 (human)) [nM]	EC50 [1] [nM]	EC50 [2] [nM]	binding result [3]
mIgG1	4.24			
B1		1.69	1.26	binds
B2		2.39	3.67	binds
